Here are results for three molecules from PMC2940942 (Journal of Molecular Biology, 2009).

In general, Kd refers to a measure of binding affinity in units of concentration.

Read-outs that look alike come from different tables or passages of the source.

The target of data set [1] is T1, cyclophilin A (UniProt P62937 1-165). The data set is described as follows: NMR titration.
The data set “SEC” deals with the molecule itself. Kind of data set: SEC.
Data set [2] deals with T1, cyclophilin A. Kind of data set: NMR titration. The source holds these as a separate data set.

Regarding GSHLAALWPFLG [CD147^10mer peptide (CD147 residues 205–214)], in the data set with cyclophilin A [1], the Kd is 4.2 ± 0.2 mM.

B1: CD147^22–269 (isoform 2 without the signal peptide) (receptor)
chain: AAGTVFTTVEDLGSKILLTCSLNDSATEVTGHRWLKGGVVLKEDALPGQKTEFKVDSDDQWGEYSCVFLPEPMGTANIQLHGPPRVKAVKSSEHINEGETAMLVCKSESVPPVTDWAWYKITDSEDKALMNGSESRFFVSSSQGRSELHIENLNMEADPGQYRCNGTSSKGSDQAIITLRVRSHLAALWPFLGIVAEVLVLVTIIFIYEKRRKPEDVLDDDDAGSAPLKSSGQHQNDKGKNVRQRNSS
On to B1, for which the binding result in “SEC” is “binds”.

B2: CD147^22–214 (domain or fragment)
chain: AAGTVFTTVEDLGSKILLTCSLNDSATEVTGHRWLKGGVVLKEDALPGQKTEFKVDSDDQWGEYSCVFLPEPMGTANIQLHGPPRVKAVKSSEHINEGETAMLVCKSESVPPVTDWAWYKITDSEDKALMNGSESRFFVSSSQGRSELHIENLNMEADPGQYRCNGTSSKGSDQAIITLRVRSHLAALWPFLG
In turn, B2 yielded a Kd with cyclophilin A [2] above 1 mM.
